In patent publication EP4624493A1 (Jiangsu Hengrui Pharmaceuticals Co., Ltd., dated 2025):

Molecular target: T1, human HGFR protein extracellular domain with the His tag (human, UniProt P08581 25-932)
T1 construct: also called HGFR-His
Assay: SPR Biacore T200, comparison of KD values

T1 sequence (P08581 other isoform, or with tags, fused parts or gaps): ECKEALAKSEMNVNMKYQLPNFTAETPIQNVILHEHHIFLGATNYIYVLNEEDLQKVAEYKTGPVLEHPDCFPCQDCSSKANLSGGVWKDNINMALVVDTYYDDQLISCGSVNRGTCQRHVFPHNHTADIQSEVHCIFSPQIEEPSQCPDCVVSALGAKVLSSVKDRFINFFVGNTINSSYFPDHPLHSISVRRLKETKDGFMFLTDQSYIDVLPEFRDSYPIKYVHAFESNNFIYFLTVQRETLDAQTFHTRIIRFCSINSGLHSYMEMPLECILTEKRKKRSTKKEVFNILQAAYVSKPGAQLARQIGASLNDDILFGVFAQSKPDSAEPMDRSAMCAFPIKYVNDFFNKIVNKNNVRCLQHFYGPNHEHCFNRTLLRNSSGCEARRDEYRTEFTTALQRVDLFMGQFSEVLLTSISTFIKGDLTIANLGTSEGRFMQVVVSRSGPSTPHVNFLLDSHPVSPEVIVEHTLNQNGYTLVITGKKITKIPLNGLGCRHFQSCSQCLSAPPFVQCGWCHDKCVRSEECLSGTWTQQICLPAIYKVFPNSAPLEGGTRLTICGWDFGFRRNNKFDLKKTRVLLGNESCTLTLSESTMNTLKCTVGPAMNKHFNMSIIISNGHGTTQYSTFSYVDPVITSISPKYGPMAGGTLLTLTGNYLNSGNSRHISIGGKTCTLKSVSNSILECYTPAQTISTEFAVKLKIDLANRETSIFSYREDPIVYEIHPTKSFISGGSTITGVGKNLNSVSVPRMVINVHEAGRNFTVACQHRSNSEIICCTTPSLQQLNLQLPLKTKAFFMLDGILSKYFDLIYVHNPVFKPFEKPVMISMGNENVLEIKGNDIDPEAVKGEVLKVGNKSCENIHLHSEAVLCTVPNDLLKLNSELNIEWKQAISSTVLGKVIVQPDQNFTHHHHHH

B1: Ab10.1, mutant antibody of Ab10 (anti-HGFR) (antibody, V domains shown)
VH: QVQLVESGGGVVQPGRSLRLSCAASGFSLSDYGVHWVRQAPGKGLEWLAVIWSGGSTNYADAFVSRLTISKDNSKNTVYLQMNSLRAEDTAVYYCARNHDNPYIYAMDYWGQGTTVTVSS
VL: DIVLTQSPDSLAVSLGERATINCRADKSVSTSTYNYLHWYQQKPGQPPKLLIYRGSFLATGVPDRFSGSGSGTDFTLTISSLQAEDVAVYYCQHSRDLPPTFGQGTKLEIK
fold affinity against the parent antibody Ab10: ≥ 4 fold
